Results reported in article PMC3164656, “Burkholderia cenocepacia BC2L-C Is a Super Lectin with Dual Specificity and Proinflammatory Activity” (PLoS Pathogens, 2011).

Assays:
B. cenocepacia K56-2 = assay: Mannose-dependent lectin extraction from bacterial surface (Western blot); parameters: species or system Burkholderia cenocepacia; details: 50 mM D-mannose, 5 min, FLAG-tagged lectins
Experimental: Culture supernatant proteins were precipitated with trichloroacetic acid as described previously The protein concentration was determined by Bradford assay (Bio-Rad) and 4 µg of protein were loaded on a 18% SDS-PAGE gel. After electrophoresis, gels were transferred to nitrocellulose membranes for immunoblot analysis. The membranes were incubated with the 4RA2 monoclonal antibody (Neoclone) cross-reacting with the B. cenocepacia RNA polymerase subunit alpha (cytosolic protein, cell lysis control) and the FLAG M2 monoclonal antibody (Sigma). The Alexa Fluor 680 goat anti-mouse IgG (Molecular Probes) was used as a secondary antibody. Detection was performed using the Odyssey Infrared Imager (LI-COR Biosciences).
Overnight cultures were diluted to an OD600 nm of 0.03 in 50 mL LB and grown at 37°C for 8 h. Cells were then centrifuged at 5000 g for 10 min. The pellet was washed twice with 25 mL of phosphate buffered saline (PBS) and finally resuspended in 1.5 mL PBS. Five hundred µL aliquots were placed into two eppendorf tubes to which 500 µL of PBS or 500 µL of 100 mM D-mannose made in PBS (50 mM final concentration) was added. Samples were gently mixed by inversion and incubated for 5 min at room temperature. Samples were centrifuged at 6000 g for 5 min, supernatants were collected (800 µL) and filter-sterilized using […] filters. […]

BC2L-C-nt = tested on: BC2L-C-nt; parameters: method as in PMID 20152153; details: cited from earlier work
[1] = molecular target: BC2L-C, soluble lectin from Burkholderia cenocepacia (whole protein) (Burkholderia cenocepacia) (UniProt B4EH87); assay: SEC-MALS; Superdex 200, 20 mM Tris, 250 mM NaCl, 1 mM CaCl2, pH 7.5; loaded at 4.2 mg/mL BC2L-C, 7.5 mg/mL BC2L-C-nt, 10.7 mg/mL BC2L-C-ct; MALLS with refractometry
[2] = molecular target: BC2L-C-ct, C-terminal domain of BC2L-C (Burkholderia cenocepacia); assay: as above
[3] = molecular target: BC2L-C-nt, N-terminal TNF-α-like domain of BC2L-C (Burkholderia cenocepacia); assay: as above
BEAS-2B cells = assay: IL-8 production by respiratory epithelial cells (ELISA); type: cell-based, human; details: 0.3 µM, 15 h, ELISA of supernatants
Experimental: BC2L-C and its separate domains were used for the stimulation of the human bronchial cell line BEAS-2B obtained from the American Type Cell Collection (Manassas, VA). Cells were maintained in serial passage in F-12K culture medium supplemented with 10% FCS, 1% penicillin and streptomycin, 1% glutamine and 10 mM HEPES in 75 cm2 culture flasks and seeded at 5×10^4 on 24-well plates 3 days before stimulation. In all experiments, BEAS-2B cells were stimulated during 15 hours with the different agonists in a 300 µL medium. IL-8 concentrations in cell culture supernatants were determined using a Duo-Set ELISA kit. Duo-Set ELISA kit and the recombinant human TNF-α were obtained from R&D Systems (Minneapolis, MN).

OC[C@H]1OC(O)[C@@H](O)[C@@H](O)[C@@H]1O (stereo partly drawn) [D-Man, D-mannose]
release of surface-bound lectins into supernatant (B. cenocepacia K56-2): BC2L-B and -C lectins are released into the supernatant

C[C@H](O)[C@@H](O)[C@@H](O)[C@H](O)C=O [fucose]
binding of isolated BC2L-C-nt domain (BC2L-C-nt): binds strongly to fucose

BC2L-C, soluble lectin from Burkholderia cenocepacia (whole protein) (from UniProt B4EH87 1-129) (natural protein)
stoichiometry N [1]: 6

BC2L-C-ct, C-terminal domain of BC2L-C (domain or fragment)
stoichiometry N [2]: 2

BC2L-C-nt, N-terminal TNF-α-like domain of BC2L-C (domain or fragment)
stoichiometry N [3]: 3

B1: BC2L-C: soluble hexameric lectin from Burkholderia cenocepacia with fucose- and mannose/heptose-binding domains, recombinant (protein)
chain: MADSQTSSNRAGEFSIPPNTDFRAIFFANAAEQQHIKLFIGDSQEPAAYHKLTTRDGPREATLNSGNGKIRFEVSVNGKPSATDARLAPINGKKSDGSPFTVNFGIVVSEDGHDSDYNDGIVVLQWPIG
IL-8 production (BEAS-2B cells): markedly increase in IL-8 production
